Test results published in paper PMC10030117 (eLife, 2023).

Assays:
[1] = target: T1, SARS-2 HexaPro S2 (SARS-CoV-2 Wuhan-Hu-1, HexaPro, proline substitution at position 817 | proline substitution at position 892 | …); assay: BLI + SPR; conditions: both partners purified
[2] = target: T1, SARS-2 HexaPro S2; assay: cryo-EM structure; conditions: both partners purified
[3] = target: SARS-2 HexaPro spike (SARS-CoV-2 Wuhan-Hu-1, HexaPro; T4 …, proline substitution at position 817 | proline substitution at position 892 | …); assay: BLI; conditions: both partners purified
[4] = target: T2, SARS-2 spike (2P-stabilized ectodomain with foldon) (SARS-CoV-2 Wuhan-Hu-1, UniProt P0DTC2, K986 substituted with proline | V987 substituted with proline); assay: ELISA
[5] = target: Authentic wild-type SARS-2 spike, full-length unstabilized, on the cell surface (Severe acute respiratory syndrome …, UniProt P0DTC2); assay: flow cytometry on cells; conditions: one partner purified
[6] = target: SARS-2 4P-DS spike (4P with an additional stabilizing disulfide) (SARS-CoV-2 Wuhan-Hu-1, UniProt P0DTC2, disulfide bond between amino acids 965 and 1003 (965) | disulfide bond between …, disulfide bond between amino acids 965 and 1003; Alexa Fluor 647 label in the yeast display experiment); assay: SPR; conditions: both partners purified
[7] = target: T2, SARS-2 spike (2P-stabilized ectodomain …); assay: far-Western, overlay or dot blot; conditions: both partners purified

B1: 3A3 Fab (Fab, V domains shown)
VH: QVQLQQSGAELLKPGASVKLSCTASGFNIKDTYIHWLKQRPEQGLEWIGRIGPAIGNTIYAPKFQGKATITTDTSSNTAYLQLSSLTSEDTAVYYCARYYGSSYYYFDYWGQGTTLTVSS
VL: DIVMTQSAPSVPVTPGESVSISCRSSKSLLHSNGNTYLYWFLQRPGQSPQLLIYRMSNLASGVPDRFSGSGSGTAFTLRISRVEAEDVGVYYCMQYLEYPLTFGAGTKLELK
**Q.** For B1, which Kd [1] is on record?
**A.** ~3 nM

**Q.** And the “stoichiometry N” value [2]?
**A.** 1 Fab per S2 protomer

B2: Antibody 3A3, full-length (mouse variable region-human IgG1 constant region chimera) (antibody, V domains shown)
VH: QVQLQQSGAELLKPGASVKLSCTASGFNIKDTYIHWLKQRPEQGLEWIGRIGPAIGNTIYAPKFQGKATITTDTSSNTAYLQLSSLTSEDTAVYYCARYYGSSYYYFDYWGQGTTLTVSS
VL: DIVMTQSAPSVPVTPGESVSISCRSSKSLLHSNGNTYLYWFLQRPGQSPQLLIYRMSNLASGVPDRFSGSGSGTAFTLRISRVEAEDVGVYYCMQYLEYPLTFGAGTKLELK
**Q.** For B2, which kon [3] is on record?
**A.** 800000 ± 100000 M⁻¹ s⁻¹

**Q.** And the “fold worse ELISA EC50 (stressed against fresh)” value ([4]; both partners purified)?
**A.** ~150 fold

**Q.** Does B2 bind [5]?
**A.** no binding (tested: ~1–300 nM)

B3: RAY53 Fab (Fab, V domains shown)
VH: QVQLVQSGAVVLKPGASVKLSCKASGFNIKNTYIHWLKQAPGQRLEWIGRIGPAIGNTIYAPKFQGKATITTDTSASTAYLELSSLRSEDTAVYYCARYYGSSYYYLDYWGQGTTVTVSS
VL: DIVMTQSPLSVPVTPGEPVSISCRSSKSLLHSNGNTYLYWFLQKPGQSPQLLIARMSTLASGVPDRFSGSGSGTAFTLKISRVEAEDVGVYYCMQYLEYPLTFGAGTKLEIK
**Q.** With B3 as the binder, how does the Kd [6] read?
**A.** 1300 ± 200 nM

B4: Antibody RAY53, full-length human IgG1 (antibody, V domains shown)
VH: QVQLVQSGAVVLKPGASVKLSCKASGFNIKNTYIHWLKQAPGQRLEWIGRIGPAIGNTIYAPKFQGKATITTDTSASTAYLELSSLRSEDTAVYYCARYYGSSYYYLDYWGQGTTVTVSS
VL: DIVMTQSPLSVPVTPGEPVSISCRSSKSLLHSNGNTYLYWFLQKPGQSPQLLIARMSTLASGVPDRFSGSGSGTAFTLKISRVEAEDVGVYYCMQYLEYPLTFGAGTKLEIK
**Q.** For B4, which Kd [6] is on record?
**A.** 100 ± 16 nM

**Q.** Does B4 bind ([4]; both partners purified)?
**A.** binds

**Q.** And the Kd [5]?
**A.** 100 ± 20 nM

B5: Antibody 3E11, full-length (mouse variable region-human IgG1 constant region chimera) (antibody, V domains shown)
VH: EVQLQQSGTVLARPGASVKMSCKASGYSFTNYWVHWVKQRPGQGLEWIGAIYPGNGDTTYNQKFKDKAKLTAVTSTSSAYMDLSSLTSEDSAVYYCTRRANYGSRYDYWGQGTTLTVSS
VL: DIVMTQSTSSLSASLGDRVTISCRASQGINNYLNWYQQKPDGTVKLLIYHTSRLHSGVPSRFSGSGSGTDYSLTISNLEQEDIATYFCQQGDTLPYTFGGGTKLEIK
notes: IgG1
**Q.** Does B5 bind [7]?
**A.** binds

B6: 3E11 scFv displayed on M13 phage (scFv, V domains shown)
VH: EVQLQQSGTVLARPGASVKMSCKASGYSFTNYWVHWVKQRPGQGLEWIGAIYPGNGDTTYNQKFKDKAKLTAVTSTSSAYMDLSSLTSEDSAVYYCTRRANYGSRYDYWGQGTTLTVSS
VL: DIVMTQSTSSLSASLGDRVTISCRASQGINNYLNWYQQKPDGTVKLLIYHTSRLHSGVPSRFSGSGSGTDYSLTISNLEQEDIATYFCQQGDTLPYTFGGGTKLEIK
notes: VL-linker-VH order
**Q.** Does B6 bind ([4]; one partner purified)?
**A.** binds
